Test results: US20210032351A1 (XDCEXPLORER SHANGHAI, published 2021)

How the values were obtained:
[1] = target: T1, human EGFRvIII-hFc protein (human, UniProt P00533 25-645); assay: ELISA, coated EGFRvIII-hFc, antibody 10 nM
T1 construct: extracellular domain; made in HEK293 cells, purified on protein A; also called immunogen A; hFc-tagged EGFRvIII protein; not shown: human IgG Fc fragment (hFc) of the pCpC vector
Method in brief: (§1)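 Binding of purified EGFRvIII antibody was measured on plates coated overnight at 4° C with 1.0 μg/mL EGFRvIII-hFc. After BSA blocking, antibody and then an HRP-conjugated secondary were each incubated 2 h at 37° C, and signal was taken as A450 nm.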

[2] = target: T1, human EGFRvIII-hFc protein; assay: ELISA, coated EGFRvIII-hFc, antibody 100 nM
Method in brief: as §1

[3] = target: T1, human EGFRvIII-hFc protein; assay: ELISA, coated EGFRvIII-hFc, antibody 0.001 nM
Method in brief: as §1

[4] = target: T1, human EGFRvIII-hFc protein; assay: ELISA, coated EGFRvIII-hFc, antibody 0.0001 nM
Method in brief: as §1

[5] = target: T2, human EGFRvIII protein on the cell surface (human, UniProt P00533 25-1210); assay: FACS on U87MG-EGFRvIII cells
T2 construct: whole, on cells; the cell line is named under assay; also called hEGFRvIII; U87MG-hEGFRvIII
Method in brief: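 U87MG-EGFRvIII, A431 and primary human hepatocytes (2×10⁶ cells/mL, goat-serum blocked) were incubated with antibody on ice for 2 h, then with an Alexa 488 secondary (1:1000) for 1 h and fixed in 4% paraformaldehyde. Mean fluorescence intensity was read by flow cytometry, and EC50 was derived by curve fitting.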

[6] = target: T3, human wild-type EGFR protein on the cell surface (human, UniProt P00533 25-1210); assay: FACS, MFI on A431 cells over MFI on normal primary hepatocytes; ratio of MFI on A431 to MFI on hepatocytes
T3 construct: whole, on cells; Endogenous on A431, HEB, U87MG cells and normal human primary hepatocytes; transfected on CHOk1-EGFR cells; The cell is named under assay; also called A431; HEB

OD450 nm [1] | OD450 nm [2] | OD450 nm [3] | OD450 nm [4] | EC50 [5] | Maximum mean fluorescence intensity [5] | Selective window (MFI A431/Hepatocytes) [6] | Binder
0.19 | 0.56 | 0.07 | 0.07 | – | – | – | Murine anti-75G7 (antibody, V domains shown, murine hybridoma antibody; also called 75G7C6) VH: EVQLQQSGPELVKPGASVKIPCKASGYTFTDYNMDWVKQSHGKSLEWIGDINPNNGDTIYNQKFKGKATLTVDKSSSTAYMELRSLTSEDTAVYYCARGDYDGYYPVYYAMDYWGQGTSVTVSS VL: ENVLTQSPAIMSASPGEKVTMTCRASSSVSSSYLHWYQQKSGASPKLWIFSTSNLAAGVPARFSGSGSGTSYSLTVSSVEAEDAATYYCQQYSGYPLTFGAGTKLELK
– | – | – | – | 5.75 nM | 18100 MFI | 26.5 fold | Chimeric antibody 75G7 (antibody, human IgG1, V domains shown, also called c75G7C6; chimeric antibody c75G7C6) VH: EVQLQQSGPELVKPGASVKIPCKASGYTFTDYNMDWVKQSHGKSLEWIGDINPNNGDTIYNQKFKGKATLTVDKSSSTAYMELRSLTSEDTAVYYCARGDYDGYYPVYYAMDYWGQGTSVTVSS VL: ENVLTQSPAIMSASPGEKVTMTCRASSSVSSSYLHWYQQKSGASPKLWIFSTSNLAAGVPARFSGSGSGTSYSLTVSSVEAEDAATYYCQQYSGYPLTFGAGTKLELK
